Source: patent US7605231B2, “Gelatin derivatives and high-molecular micelle comprising the derivatives” (NOF Corporation, priority 2002, dated 2009)

How the values were obtained:
[1] = test system: trypsin; assay: In vitro stability test to enzyme: trypsin + second solution, SDS-PAGE; assay type: in vitro ADME; conditions: trypsin (10 U/mL) + second solution
Procedure: (§1) Of the various PEG-grafted gelatin derivatives prepared in Example 22, 50 mg of a gelatin derivative prepared by using 2-fold mols of PEG having a molecular weight of 5000 was dissolved in 1 ml of DDW (50 mg/mL). 500 μL of the resulting solution was added to 4.5 ml of each of a Japanese Pharmacopoeia first solution (pH 1.2), a second solution (pH 6.8), pepsin (10 U/mL)+first solution or trypsin (10 U/mL)+second solution and subjected to disintegration test. The test was carried out under the conditions based on Japanese Pharmacopoeia disintegration test. The decomposition of the gelatin was evaluated by carrying out SDS-PAGE of the sample prepared after the test. Further, 500 μL of the sample was added to 4.5 mL of DDW to prepare a control group.
(§2) 50 mg of gelatin, which was not subjected to PEG grafting, was dissolved in 1 ml of DDW. 500 μL of the resulting solution was added to 4.5 mL of each of DDW, first solution, second solution, pepsin+first solution and trypsin+second solution, respectively, and then, subjected to disintegration test. The test was carried out under the conditions based on Japanese Pharmacopoeia disintegration test. The decomposition of the gelatin was evaluated by carrying out SDS-PAGE of the sample prepared after the test.

[2] = Solubilizing of paclitaxel; assay type: physicochemical; conditions: 30 μL of 10 mg/ml paclitaxel in ethanol + 500 μL of 2% aqueous solution
Procedure: A 10 mg/ml ethanol solution of paclitaxel was prepared as (a PTX solution).
A 2% gelatin aqueous solution was prepared as a gelatin solution.

[3] = test system: macrophage; assay: Test of macrophage adhesion property (SEM); assay type: cell-based, mouse; conditions: crosslinked with heating at 160° C. for 3 hours, cultured 24 hours
Procedure: 1 g of gelatin or a derivative thereof was dissolved in 10 mL of purified water while heating. This resulting polymer solution was injected into a PFA made laboratory dish and allowed to stand at 4° C. for 12 hours to conduct gelation sufficiently. The resulting gel was lyophilized and then subjected to cross-linking treatment with heating at 160° C. for 3 hours under reduced pressure in vacuum.
First, to 10-week old female ddy mouse, 2 ml of a previously sterilized Brewer's thioglycolate medium (manufactured by Difco Co.) was administered to intraperitoneal. After 5 days, the mouse was killed with blood-letting and 5 ml of PBS(−) cooled at 4° C. was administered intraperitoneal. After 5 minutes, about 4 ml of intraperitoneal effusion was recovered and was centrifuged at 8000 revolution/min for about 5 minutes to prepare a cell mass of effused macrophage. To the cell mass, 2 ml of RPMI1640 medium containing 10% FCS was added and sufficiently suspended.
Next, a specimen prepared in accordance with “the method of preparing the specimen for evaluating adhesion of macrophage” according to the above-mentioned (1) was sufficiently swelled with a RPMI1640 medium to prepare a specimen for evaluating the adhesion property of macrophage. […] Surface observation was carried out by a scanning electron microscope (Hitachi Type S-3000N) and the adhesion of macrophage was evaluated.

[4] = Critical micelle formation concentration (CMC) by PNA incorporation; assay type: physicochemical; conditions: isotonic phosphate buffer pH 7.4, PNA incorporation
Procedure: With regard to the PEG-grafted gelatin prepared, the critical micelle formation concentration (CMC) was measured. The CMC was measured by incorporating N-phenyl-1-naphtylamine (PNA) into the micelle. Using an isotonic phosphate buffer with a pH of 7.4, various concentrations—having PEG-grafted gelatin aqueous solutions were prepared. 0.1 ml of the PNA solution dissolved in methanol having a concentration of 5.0×10^−3M was added to 2 ml of the PEG-grafted gelatin solution and stirred for 2 minutes. Thereafter, the absorbance at a wavelength of 500 nm was measured using a spectrophotometer.
With regard to the PEG-grafted succinated gelatin prepared, the critical micelle forming concentration (CMC) was measured. The CMC was measured by incorporating N-phenyl-1-naphtyl amine (PNA) into the micelle. Using an isotonic phosphate buffer with a pH of 7.4, PEG-grafted succinated gelatin aqueous solutions with various concentrations were prepared. […] Thereafter, the absorbance at a wavelength of 500 nm was measured using a spectrophotometer.
Micelle solutions were prepared in accordance with the method of Example 3 from the PEG-grafted gelatin derivatives prepared in Example 22 and the CMC of each derivative was measured in accordance with Example 5.

[5] = Micelle form by affinity column (HiTrap Blue HP) that adsorbs gelatin; assay type: physicochemical; conditions: pH 7.4 bonding buffer, 2M NaCl elution
Procedure: The forms of the core and the shell of micelle were studied using affinity column, which adsorbs gelatin. Namely, HiTrap (Trade Mark) Blue HP column (manufactured by Amersham Pharmacia Co., Ltd.) was washed with 10 ml of an isotonic phosphate buffer with a pH of 7.4 and thereafter, 0.5 ml of a PEG-grafted gelatin micelle solution was applied. 5 ml of the isotonic phosphate buffer with a pH of 7.4 was used as a bonding buffer and 5 ml of a 2M aqueous sodium chloride solution was used as an elution buffer. The solution was fractionated with each 0.4 ml portions and the gelatin in each of the fractions was measured by the Lowery method.
The forms of the core and the shell of the micelle was studied using affinity column in which gelatin was adsorbed. Namely, HiTrap (Trade Mark) Blue HP column (manufactured by Amersham Pharmacia Co., Ltd.) was washed with 10 ml of an isotonic phosphate buffer with a pH of 7.4 and thereafter, 0.5 ml of a PEG-grafted gelatin micelle solution was applied. 5 ml of the pH isotonic phosphate buffer with a pH of 7.4 was used as a bonding buffer and 5 ml of a 2M aqueous sodium chloride solution was used as an elution buffer. The solution was fractionated with each 0.4 ml portions and the gelatin in each fraction was measured by the Lowery method. […]

[6] = In vitro disintegration test in Japanese Pharmacopoeia first and second solutions, SDS-PAGE; assay type: physicochemical
Procedure: as §1, §2

[7] = test system: pepsin; assay: In vitro stability test to enzyme: pepsin + first solution, SDS-PAGE; assay type: in vitro ADME; conditions: pepsin (10 U/mL) + first solution
Procedure: as §1, §2

## gelatin
[1]
  lowering of the gelatin molecular weight: a lowering of the gelatin molecular weight was confirmed
[2]
  appearance on mixing with paclitaxel solution: white precipitation
[3]
  adhesion of macrophage to the surface: tightly covered with the cells such as macrophage
[4]
  CMC (whether admitted): CMC was not admitted
[5]
  adsorption to affinity column: adsorbed to the affinity column
[6]; Japanese Pharmacopoeia first solution (pH 1.2)
  lowering of the gelatin molecular weight: a lowering of the gelatin molecular weight was confirmed
[6]; Japanese Pharmacopoeia second solution (pH 6.8)
  lowering of the gelatin molecular weight: except for the control group and the second solution, a lowering of the gelatin molecular weight was confirmed
[7]
  lowering of the gelatin molecular weight: a lowering of the gelatin molecular weight was confirmed
